Molecular target: GST-poly (Glu,Tyr) fused protein
Sequence (chain, as listed by the source): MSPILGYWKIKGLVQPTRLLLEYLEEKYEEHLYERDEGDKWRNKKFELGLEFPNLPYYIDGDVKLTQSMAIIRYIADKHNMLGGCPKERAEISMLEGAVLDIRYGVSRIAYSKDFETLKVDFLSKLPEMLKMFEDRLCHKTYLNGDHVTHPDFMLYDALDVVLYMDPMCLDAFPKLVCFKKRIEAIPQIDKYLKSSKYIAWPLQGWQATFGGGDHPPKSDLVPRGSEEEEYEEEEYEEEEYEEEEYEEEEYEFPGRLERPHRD

Protein | band of phosphorylated GST-poly (Glu,Tyr) fused protein in Western blotting with anti-phosphotyrosine antibody
VEGF Receptor 1 Kinase (intracellular domain, Cell Signaling Technology) (protein) RKMKRSSSEIKTDYLSIIMDPDEVPLDEQCERLPYDASKWEFARERLKLGKSLGRGAFGKVVQASAFGIKKSPTCRTVAVKMLKEGATASEYKALMTELKILTHIGHHLNVVNLLGACTKQGGPLMVIVEYCKYGNLSNYLKSKRDLFFLNKDAALHMEPKKEKMEPGLEQGKKPRLDSVTSSESFASSGFQEDKSLSDVEEEEDSDGFYKEPITMEDLISYSFQVARGMEFLSSRKCIHRDLAARNILLSENNVVKICDFGLARDIYKNPDYVRKGDTRLPLKWMAPESIFDKIYSTKSDVWSYGVLLWEIFSLGGSPYPGVQMDEDFCSRLREGMRMRAPEYSTPEIYQIMLDCWHRDPKERPRFAELVEKLGDLLQANVQQDGKDYIPINAILTGNSGFTYSTPAFSEDFFKESISAPKFNSGSSDDVRYVNAFKFMSLERIKTFEELLPNATSMFDDYQGDSSTLLASPMLKRFTWTDSKPKASLKIDLRVTSKSKESGLSDVSRPSFCHSSCGHVSEGKRRFTYDHAELERKIACCSPPPDYNSVVLYSTPPI | In “+” of “i” to “vii”, a single band was seen at positions where a phosphorylated GST-poly (Glu,Tyr) fused protein appears
ErbB4 Kinase (intracellular domain, Cell Signaling Technology) (protein) RRKSIKKKRALRRFLETELVEPLTPSGTAPNQAQLRILKETELKRVKVLGSGAFGTVYKGIWVPEGETVKIPVAIKILNETTGPKANVEFMDEALIMASMDHPHLVRLLGVCLSPTIQLVTQLMPHGCLLEYVHEHKDNIGSQLLLNWCVQIAKGMMYLEERRLVHRDLAARNVLVKSPNHVKITDFGLARLLEGDEKEYNADGGKMPIKWMALECIHYRKFTHQSDVWSYGVTIWELMTFGGKPYDGIPTREIPDLLEKGERLPQPPICTIDVYMVMVKCWMIDADSRPKFKELAAEFSRMARDPQRYLVIQGDDRMKLPSPNDSKFFQNLLDEEDLEDMMDAEEYLVPQAFNIPPPIYTSRARIDSNRSEIGHSPPPAYTPMSGNQFVYRDGGFAAEQGVSVPYRAPTSTIPEAPVAQGATAEIFDDSCCNGTLRKPVAPHVQEDSSTQRYSADPTVFAPERSPRGELDEEGYMTPMRDKPKQEYLNPVEENPFVSRRKNGDLQALDNPEYHNASNGPPKAEDEYVNEPLYLNTFANTLGKAEYLKNNILSMPEKAKKAFDNPDYWNHSLPPRSTLQHPDYLQEYSTKYFYKQNGRIRPIVAENPEYLSEFSLKPGTVLPPPPYRHRNTVV | In “+” of “i” to “vii”, a single band was seen at positions where a phosphorylated GST-poly (Glu,Tyr) fused protein appears
IGF-1 Receptor Kinase (intracellular domain, Cell Signaling Technology) (protein) RKRNNSRLGNGVLYASVNPEYFSAADVYVPDEWEVAREKITMSRELGQGSFGMVYEGVAKGVVKDEPETRVAIKTVNEAASMRERIEFLNEASVMKEFNCHHVVRLLGVVSQGQPTLVIMELMTRGDLKSYLRSLRPEMENNPVLAPPSLSKMIQMAGEIADGMAYLNANKFVHRDLAARNCMVAEDFTVKIGDFGMTRDIYETDYYRKGGKGLLPVRWMSPESLKDGVFTTYSDVWSFGVVLWEIATLAEQPYQGLSNEQVLRFVMEGGLLDKPDNCPDMLFELMRMCWQYNPKMRPSFLEIISSIKEEMEPGFREVSFYYSEENKLPEPEELDLEPENMESVPLDPSASSSSLPLPDRHSGHKAENGPGPGVLVLRASFDERQPYAHMNGGRKNERALPLPQSSTC | In “+” of “i” to “vii”, a single band was seen at positions where a phosphorylated GST-poly (Glu,Tyr) fused protein appears
PDGF Receptor β Kinase (intracellular domain, Cell Signaling Technology) (protein) RYEIRWKVIESVSSDGHEYIYVDPMQLPYDSTWELPRDQLVLGRTLGSGAFGQVVEATAHGLSHSQATMKVAVKMLKSTARSSEKQALMSELKIMSHLGPHLNVVNLLGACTKGGPIYIITEYCRYGDLVDYLHRNKHTFLQHHSDKRRPPSAELYSNALPVGLPLPSHVSLTGESDGGYMDMSKDESVDYVPMLDMKGDVKYADIESSNYMAPYDNYVPSAPERTCRATLINESPVLSYMDLVGFSYQVANGMEFLASKNCVHRDLAARNVLICEGKLVKICDFGLARDIMRDSNYISKGSTFLPLKWMAPESIFNSLYTTLSDVWSFGILLWEIFTLGGTPYPELPMNEQFYNAIKRGYRMAQPAHASDEIYEIMQKCWEEKFEIRPPFSQLVLLLERLLGEGYKKKYQQVDEEFLRSDHPAILRSQARLPGFHGLRSPLDTSSVLYTAVQPNEGDNDYIIPLPDPKPEVADEGPLEGSPSLASSTLNEVNTSSTISCDSPLEPQDEPEPEPQLELQVEPEPELEQLPDSGCPAPRAEAEDSFL | In “+” of “i” to “vii”, a single band was seen at positions where a phosphorylated GST-poly (Glu,Tyr) fused protein appears
